These results are taken from PMC11148156, “Substrate scope expansion of 4-phenol oxidases by rational enzyme selection and sequence-function relations” (Communications Chemistry, 2024).

In one data set the target is T1, NspEUGO (Nocardioides sp. YR527, UniProt A0A1G9AL67).
T1 construct: gene SAMN05428985_103382; recombinant, expressed in E. coli; flavin-dependent; details in supplement
T1 sequence (A0A1G9AL67 1-529): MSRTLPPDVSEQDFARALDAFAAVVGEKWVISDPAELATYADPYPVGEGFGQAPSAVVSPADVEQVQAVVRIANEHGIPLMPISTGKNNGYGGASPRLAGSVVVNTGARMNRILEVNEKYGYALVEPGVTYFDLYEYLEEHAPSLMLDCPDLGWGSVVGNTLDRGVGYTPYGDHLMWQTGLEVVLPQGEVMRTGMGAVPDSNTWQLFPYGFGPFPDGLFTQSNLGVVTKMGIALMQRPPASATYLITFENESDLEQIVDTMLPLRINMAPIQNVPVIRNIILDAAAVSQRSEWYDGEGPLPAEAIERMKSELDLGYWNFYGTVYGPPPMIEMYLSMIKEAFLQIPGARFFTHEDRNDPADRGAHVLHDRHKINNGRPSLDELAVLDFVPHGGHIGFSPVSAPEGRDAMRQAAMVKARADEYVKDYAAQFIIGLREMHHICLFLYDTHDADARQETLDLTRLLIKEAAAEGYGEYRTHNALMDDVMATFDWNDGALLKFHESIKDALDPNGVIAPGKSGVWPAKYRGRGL
Nature of the data set: xylenol orange assay (initial rate). Format: biochemical. As to conditions: 2 mM substrate, 50 mM potassium phosphate pH 7.5.

The next data set addresses T2, RjEUGO (Rhodococcus jostii, UniProt Q0SBK1).
T2 construct: gene RHA1_ro03282; recombinant, expressed in E. coli; flavin-dependent; details in supplement
T2 sequence (Q0SBK1 1-526): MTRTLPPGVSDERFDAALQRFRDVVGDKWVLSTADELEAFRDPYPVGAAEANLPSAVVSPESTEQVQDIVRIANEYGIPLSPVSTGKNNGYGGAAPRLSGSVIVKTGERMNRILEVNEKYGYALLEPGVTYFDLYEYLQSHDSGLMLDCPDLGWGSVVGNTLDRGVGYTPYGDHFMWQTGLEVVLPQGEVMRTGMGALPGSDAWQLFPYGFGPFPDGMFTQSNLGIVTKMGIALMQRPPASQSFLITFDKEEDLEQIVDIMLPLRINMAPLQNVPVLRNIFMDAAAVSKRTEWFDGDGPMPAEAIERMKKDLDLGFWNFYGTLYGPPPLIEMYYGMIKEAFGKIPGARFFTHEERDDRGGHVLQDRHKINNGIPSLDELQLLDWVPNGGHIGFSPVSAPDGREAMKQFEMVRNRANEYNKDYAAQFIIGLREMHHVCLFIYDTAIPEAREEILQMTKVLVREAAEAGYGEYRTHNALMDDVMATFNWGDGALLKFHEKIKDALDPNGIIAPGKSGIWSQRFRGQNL
Nature of the data set: xylenol orange assay (initial rate). It is filed as biochemical. Particulars: 2 mM substrate, 50 mM potassium phosphate pH 7.5.

Substrate in data set [1]: OCc1ccc(O)cc1
Nature of the data set: Michaelis-Menten kinetics. Format: biochemical, Geodermatophilaceae bacterium. As to conditions: pH 9.5.

Substrate in data set [2]: C=CCc1ccc(O)c(OC)c1
Briefly: Michaelis-Menten kinetics. It is filed as biochemical, Geodermatophilaceae bacterium. As to conditions: optimal conditions for both enzymes (see supplement).

Substrate in data set [3]: COc1cc(CO)ccc1O
Nature of the data set: Michaelis-Menten kinetics. It is filed as biochemical, Geodermatophilaceae bacterium. As to conditions: optimal conditions for both enzymes (see supplement).

Substrate in data set [4]: OCc1ccc(O)cc1
Nature of the data set: Michaelis-Menten kinetics. It is filed as biochemical, Arthrobacter sp. UCD-GKA. As to conditions: pH 9.5.

Substrate in data set [5]: C=CCc1ccc(O)c(OC)c1
Nature of the data set: Michaelis-Menten kinetics. Particulars: optimal conditions for both enzymes (see supplement). It is filed as biochemical, Arthrobacter sp. UCD-GKA.

Substrate in data set [6]: COc1cc(CO)ccc1O
Briefly: Michaelis-Menten kinetics. As to conditions: optimal conditions for both enzymes (see supplement). Format: biochemical, Arthrobacter sp. UCD-GKA.

Consider `CCCCOCc1ccc(O)c(OC)c1` [compound 13, vanillyl butyl ether], for which the “xylenol orange assay (initial rate)” value on NspEUGO is given as “NspEUGO which is the most active wildtype enzyme on vanillyl butyl ether”.
For `Oc1ccc(C2CCCC2)cc1` [compound 42, 4-cyclopentyl phenol], the “xylenol orange assay (initial rate)” value at RjEUGO is on record as “RjEUGO which was the most active wildtype enzyme for 4-cyclopentyl phenol”.

B1: GbEUGO (Geodermatophilaceae bacterium) (protein)
chain: MSRILPPELSDSDFDAAIARFRDVVGEKHVLTEDGDLSRYRDPYPVGGQPSGGASAAVAPETSEQVQEIVRIANEYGVPLSPISTGKNNGYGGGQPRLSGAVVVDTGLRMNRILEVNEKFGYALLEPGVSYFDLYEHLQANAPSLMLDCPDLGWGSVVGNTLDRGVGYTPYGDHLMWQTGLEVVLPTGDVMRTGMGAVPGSNAWQLFPYGFGPFPDGLFTQSNLGIVTKMGIALMQRPPASETFVISFDREEDLEQVVDIMLPLRINMAPLQNVPVLRNIILDAGVVSKRTEWHDGDGPLPPEAISRMKAELGLGYWNLYGTVYGPPPVLEAHLGIIKDAFLQVPGSRFATTQDRDEATDRGAHVLHDRHRINNGIPSLDEMKLMEFVPNGGHIGFSPVSAPDGADALRQSQMVRRRADEYRKDYAAQFIVGLREMHHIGLFLFDTTDAVARQETLDLARVLIDEAAAAGYGEYRTHNALMDQVMGTYNWGGDALLKFHETIKDALDPNSVMAPGKSGIWGRKYRDRALA
notes: recombinant, expressed in E. coli; flavin-dependent; details in supplement
As usually defined, the Km is the substrate concentration at which the rate is half of its maximum. As a reminder, the kcat is the maximal rate divided by the concentration of active sites. With B1, the results for the Km in data set [1], in data set [2] and in data set [3] were 455 ± 50 µM, 23 ± 1 µM and 31 ± 1 µM, respectively. Moreover, the figures for the kcat in data set [1], in data set [2] and in data set [3] were 18 ± 1 s⁻¹, 23 ± 0.2 s⁻¹ and 16 ± 0.4 s⁻¹, respectively.

B2: AspEUGO (Arthrobacter sp. UCD-GKA) (protein)
chain: MSRIIPLDVSEADFDAALEEFRGALGAQWVLSSPVELEAFADPYPTTNGLEFLPGAVISPSTPEEVQVIVGIANKYKVPLSPVSTGKNLGYGGAAPRLSGTVVVNTGERMNKIIEVNEKYAFALVEPGVTYFDLYNHIQEKGYNLWIDVPDLGWGSIVGNTLDRGVGYTPYGDHWSWQTGLEVVLPDGDLLRTGMGAMSGSDAWQLFPYGFGPYPDGLFSQSNYGIVTKLGIALMPAPPASETFLITFENEADLEQVIDIMLPLRIGMAPLQNVPVLRNIFMDAAAVSHRDEWHAGPGHLSDDEIKTMQRELNLGYWNLYASVYGPPPQIEMFLAMIKEAFLQVPGARFATTKDRPESPEDRGGHVLHDRHKINRGIPTIEERHLMDWVPNGGHTSFSPVSAPDGKDAMRQALMVKKRADEFGQDYAAQFIVGLREMHHICLFLYNTAVPRERDNTLAMARILVEEAADAGYGEYRTHLALMDQVMATFDYNDGALLRFHERVKDALDPNSIMAPGKSGIWGARYRDRGLELLHAPALEDSTPNSA
notes: as for B1
As to B2, the figures for the Km in data set [4], in data set [5] and in data set [6] were 33 ± 2 µM, 28 ± 1 µM and 49 ± 3 µM, respectively. Further, the kcat in data set [4] was determined as 18 ± 1 s⁻¹; in data set [5] it was 21 ± 0.4 s⁻¹; in data set [6] it was 24 ± 0.8 s⁻¹.
